For series [1], the system named is HeLa Kyoto. Nature of the series: solubility change mitosis vs G1/S (difference of NP-40 vs SDS log2 ratios) (log2 ratio difference); higher = more soluble in mitosis.
Series [2] concerns HeLa Kyoto. The series is described as follows: solubility in G1/S (NP-40 vs SDS abundance) (log2 ratio); higher = more soluble. The note with it: cell cycle stage: G1/S.
Series [3] has as its system HeLa Kyoto. Nature of the series: thermal stability score vs G1/S (z-score of summed log2 fold changes over temperatures); higher = more thermally stable than in G1/S.
Series [4] concerns HeLa Kyoto. Nature of the series: melting temperature (median over replicates), in situ; higher = more thermally stable.
[5] abbreviates: cell cycle stage: early G1 (4.5 h after nocodazole release).
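Wherever melting temperature (median over replicates), in situ is given: HeLa Kyoto cells synchronized by double thymidine or nocodazole block, proteins quantified by TMT10plex mass spectrometry, three independent biological replicates.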
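Wherever solubility change mitosis vs G1/S (difference of NP-40 vs SDS log2 ratios) is given: synchronized HeLa Kyoto cells (double thymidine block for G1/S, nocodazole release for mitosis), protein amounts in NP-40 versus SDS lysates quantified by mass spectrometry, three biological replicates.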
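Wherever solubility in G1/S (NP-40 vs SDS abundance) is given: HeLa Kyoto cells arrested at G1/S by double thymidine block, proteins quantified by TMT10plex mass spectrometry in mild NP-40 versus SDS extracts, three biological replicates.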
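Wherever thermal stability score vs G1/S (z-score of summed log2 fold changes over temperatures) is given: synchronized HeLa Kyoto cells, proteins quantified by TMT10plex mass spectrometry, three biological replicates, mitosis taken 0.5 h after nocodazole release, G1/S directly after double thymidine block.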

With “MASPSLERPEKGAGKSEFRNQKPKPENQDESELLTVPDGWKEPAFSKEDNPRGLLEESSFATLFPKYREAYLKECWPLVQKALNEHHVNATLDLIEGSMTVCTTKKTFDPYIIIRARDLIKLLARSVSFEQAVRILQDDVACDIIKIGSLVRNKERFVKRRQRLIGPKGSTLKALELLTNCYIMVQGNTVSAIGPFSGLKEVRKVVLDTMKNIHPIYNIKSLMIKRELAKDSELRSQSWERFLPQFKHKNVNKRKEPKKKTVKKEYTPFPPPQPESQIDKELASGEYFLKANQKKRQKMEAIKAKQAEAISKRQEERNKAFIPPKEKPIVKPKEASTETKIDVASIKEKVKKAKNKKLGALTAEEIALKMEADEKKKKKKK [KRR1]”, in the series with HeLa Kyoto [1], the “solubility change mitosis (log2)” value came out at 0.79. In the series on HeLa Kyoto [2], the “solubility in G1/S (log2)” value was -1.22. Further, the thermal stability score in the series on HeLa Kyoto [3] (setting [5]) was determined as 3.32; in the series with HeLa Kyoto [3] (cell cycle stage: mitosis), 4.5. The values for the melting temperature in the series on HeLa Kyoto [4] (cell cycle stage: G1/S) and with HeLa Kyoto [4] (cell cycle stage: mitosis) were 51.3 °C and 50.1 °C, respectively.
For the sequence “MASQPNSSAKKKEEKGKNIQVVVRCRPFNLAERKASAHSIVECDPVRKEVSVRTGGLADKSSRKTYTFDMVFGASTKQIDVYRSVVCPILDEVIMGYNCTIFAYGQTGTGKTFTMEGERSPNEEYTWEEDPLAGIIPRTLHQIFEKLTDNGTEFSVKVSLLEIYNEELFDLLNPSSDVSERLQMFDDPRNKRGVIIKGLEEITVHNKDEVYQILEKGAAKRTTAATLMNAYSSRSHSVFSVTIHMKETTIDGEELVKIGKLNLVDLAGSENIGRSGAVDKRAREAGNINQSLLTLGRVITALVERTPHVPYRESKLTRILQDSLGGRTRTSIIATISPASLNLEETLSTLEYAHRAKNILNKPEVNQKLTKKALIKEYTEEIERLKRDLAAAREKNGVYISEENFRVMSGKLTVQEEQIVELIEKIGAVEEELNRVTELFMDNKNELDQCKSDLQNKTQELETTQKHLQETKLQLVKEEYITSALESTEEKLHDAASKLLNTVEETTKDVSGLHSKLDRKKAVDQHNAEAQDIFGKNLNSLFNNMEELIKDGSSKQKAMLEVHKTLFGNLLSSSVSALDTITTVALGSLTSIPENVSTHVSQIFNMILKEQSLAAESKTVLQELINVLKTDLLSSLEMILSPTVVSILKINSQLKHIFKTSLTVADKIEDQKKELDGFLSILCNNLHELQENTICSLVESQKQCGNLTEDLKTIKQTHSQELCKLMNLWTERFCALEEKCENIQKPLSSVQENIQQKSKDIVNKMTFHSQKFCADSDGFSQELRNFNQEGTKLVEESVKHSDKLNGNLEKISQETEQRCESLNTRTVYFSEQWVSSLNEREQELHNLLEVVSQCCEASSSDITEKSDGRKAAHEKQHNIFLDQMTIDEDKLIAQNLELNETIKIGLTKLNCFLEQDLKLDIPTGTTPQRKSYLYPSTLVRTEPREHLLDQLKRKQPELLMMLNCSENNKEETIPDVDVEEAVLGQYTEEPLSQEPSVDAGVDCSSIGGVPFFQHKKSHGKDKENRGINTLERSKVEETTEHLVTKSRLPLRAQINL [KIF11]”, the “solubility change mitosis (log2)” value with HeLa Kyoto [1] is -0.143. Moreover, the “solubility in G1/S (log2)” value with HeLa Kyoto [2] was -0.0398. In addition, the thermal stability score worked out at 6 with HeLa Kyoto [3] (setting [5]) and 5.17 in the series with HeLa Kyoto [3] (cell cycle stage: mitosis). In addition, the melting temperature stood at 48.2 °C with HeLa Kyoto [4] (cell cycle stage: G1/S) and 49 °C in the series with HeLa Kyoto [4] (cell cycle stage: mitosis).
With “MASSNTVLMRLVASAYSIAQKAGMIVRRVIAEGDLGIVEKTCATDLQTKADRLAQMSICSSLARKFPKLTIIGEEDLPSEEVDQELIEDSQWEEILKQPCPSQYSAIKEEDLVVWVDPLDGTKEYTEGLLDNVTVLIGIAYEGKAIAGVINQPYYNYEAGPDAVLGRTIWGVLGLGAFGFQLKEVPAGKHIITTTRSHSNKLVTDCVAAMNPDAVLRVGGAGNKIIQLIEGKASAYVFASPGCKKWDTCAPEVILHAVGGKLTDIHGNVLQYHKDVKHMNSAGVLATLRNYDYYASRVPESIKNALVP [BPNT1]”, in the series with HeLa Kyoto [1], the “solubility change mitosis (log2)” value is -0.0215. Further, the “solubility in G1/S (log2)” value in the series with HeLa Kyoto [2] was determined as 0.211. Further, the thermal stability score in the series on HeLa Kyoto [3] (setting [5]) is -0.366; in the series on HeLa Kyoto [3] (cell cycle stage: mitosis), -1.21. Moreover, the results for the melting temperature in the series with HeLa Kyoto [4] (cell cycle stage: G1/S) and with HeLa Kyoto [4] (cell cycle stage: mitosis) were 57.5 °C and 57.9 °C, respectively.
Consider “MASSRASSTQATKTKAPDDLVAPVVKKPHIYYGSLEEKERERLAKGESGILGKDGLKAGIEAGNINITSGEVFEIEEHISERQAEVLAEFERRKRARQINVSTDDSEVKACLRALGEPITLFGEGPAERRERLRNILSVVGTDALKKTKKDDEKSKKSKEEYQQTWYHEGPNSLKVARLWIANYSLPRAMKRLEEARLHKEIPETTRTSQMQELHKSLRSLNNFCSQIGDDRPISYCHFSPNSKMLATACWSGLCKLWSVPDCNLLHTLRGHNTNVGAIVFHPKSTVSLDPKDVNLASCAADGSVKLWSLDSDEPVADIEGHTVRVARVMWHPSGRFLGTTCYDRSWRLWDLEAQEEILHQEGHSMGVYDIAFHQDGSLAGTGGLDAFGRVWDLRTGRCIMFLEGHLKEIYGINFSPNGYHIATGSGDNTCKVWDLRQRRCVYTIPAHQNLVTGVKFEPIHGNFLLTGAYDNTAKIWTHPGWSPLKTLAGHEGKVMGLDISSDGQLIATCSYDRTFKLWMAE [PRPF4]”, for which, in the series with HeLa Kyoto [1], the “solubility change mitosis (log2)” value amounted to 0.223. Further, in the series with HeLa Kyoto [2], the “solubility in G1/S (log2)” value is -0.454. Moreover, the thermal stability score in the series with HeLa Kyoto [3] (setting [5]) is -0.546; in the series with HeLa Kyoto [3] (cell cycle stage: mitosis), -0.96. Further, the melting temperature in the series on HeLa Kyoto [4] (cell cycle stage: G1/S) stood at 49.9 °C; in the series with HeLa Kyoto [4] (cell cycle stage: mitosis) it was 49.5 °C.
For the sequence “MASSSGNDDDLTIPRAAINKMIKETLPNVRVANDARELVVNCCTEFIHLISSEANEICNKSEKKTISPEHVIQALESLGFGSYISEVKEVLQECKTVALKRRKASSRLENLGIPEEELLRQQQELFAKARQQQAELAQQEWLQMQQAAQQAQLAAASASASNQAGSSQDEEDDDDI [DR1]”, the “solubility change mitosis (log2)” value in the series with HeLa Kyoto [1] came out at 0.91. Also, the “solubility in G1/S (log2)” value in the series on HeLa Kyoto [2] is -0.174. In addition, the thermal stability score in the series with HeLa Kyoto [3] (setting [5]) is -1.34; in the series on HeLa Kyoto [3] (cell cycle stage: mitosis), -0.438. For the same sequence, the melting temperature in the series with HeLa Kyoto [4] (cell cycle stage: G1/S) worked out at 58.2 °C; in the series with HeLa Kyoto [4] (cell cycle stage: mitosis), 52.7 °C.

Source of the values: the supplement of paper PMC5998384.
